# Experimental data from patent US20180086804A1 (COMMISSARIAT A L ENERGIE ATOMIQUE ET AUX ENERGIES …, published 2018).
# No end group written: not given here.
# Target: T1, HLA-DR7 (HLA-DRB1*07:01) (human)
# T1 construct: mature; purified from homozygous EBV-transformed lymphoblastoid cells with antibody L243
# Experiment: competition ELISA vs biotin-YKL
row,Binder,relative affinity
1,SQIAAGAFCLALKIL-NH2 [CCNB1 342-356],20
2,KKMLQLVGVTAMFIA-NH2 [CCNB1 241-255],0.1
3,QHYLSYTEESLLPVM-NH2 [CCNB1 366-380],1

# Target: T2, HLA-DR3 (HLA-DRB1*03:01) (human)
# T2 construct: mature; purified from homozygous EBV-transformed lymphoblastoid cells with antibody L243
# Experiment: competition ELISA vs biotin-MT 2-16
row,Binder,relative affinity
1,EDLCQAFSDVILAVN-NH2 [CCNB1 140-154],161
2,SKIGEVDVEQHTLAK-NH2 [CCNB1 310-324],306
3,KDIYAYLRQLEEEQA-NH2 [CCNB1 172-186],33
4,PKYLLGREVTGNMRA-NH2 [CCNB1 189-203],764
5,SKINAENKAKINMAG-NH2 [CCNB1 9-23],22
6,QGLTKHMTVKNKYAT-NH2 [CCNB1 392-406],408
7,TGKVIDKKLPKPLEK-NH2 [CCNB1 71-85],228

# Target: T3, HLA-DR1 (HLA-DRB1*01:01) (human)
# T3 construct: mature; class II HLA molecule purified from homozygous EBV-transformed lymphoblastoid cells with antibody L243
# Experiment: competition ELISA vs biotin-HA 306-318;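 note: HLA and competitor incubated 24 to 72 h, maximal signal taken from wells lacking competitor, background from wells lacking HLA molecule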
row,Binder,relative affinity
1,EQLQAKMPMKKEAKP-NH2 [CCNB1 54-68],3740
2,GEWTPTLQHYLSYTE-NH2 [CCNB1 359-373],548
3,KHMTVKNKYATSKHA-NH2 [CCNB1 396-410],7480
4,EPVKEEKLSPEPILV-NH2 [CCNB1 108-122],894
5,KDIYAYLRQLEEEQA-NH2 [CCNB1 172-186],42
6,PKYLLGREVTGNMRA-NH2 [CCNB1 189-203],17

# Target: T4, HLA-DRB5 (HLA-DRB5*01:01) (human)
# T4 construct: mature; purified from homozygous EBV-transformed lymphoblastoid cells with antibody L243
# Experiment: competition ELISA vs biotin-HA 306-318;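 note: HLA and competitor incubated 24 to 72 h, maximal signal taken from wells lacking competitor, background from wells lacking HLA molecule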
row,Binder,relative affinity
1,EQLQAKMPMKKEAKP-NH2 [CCNB1 54-68],35
2,GEWTPTLQHYLSYTE-NH2 [CCNB1 359-373],224
3,SKIGEVDVEQHTLAK-NH2 [CCNB1 310-324],1500
4,KDIYAYLRQLEEEQA-NH2 [CCNB1 172-186],775
5,SKINAENKAKINMAG-NH2 [CCNB1 9-23],1000
6,QGLTKHMTVKNKYAT-NH2 [CCNB1 392-406],47
7,TGKVIDKKLPKPLEK-NH2 [CCNB1 71-85],250

# Target: T5, HLA-DR4 (HLA-DRB1*04:01) (human)
# T5 construct: mature; purified from homozygous EBV-transformed lymphoblastoid cells with antibody L243
# Experiment: competition ELISA vs biotin-HA 306-318;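 note: HLA and competitor incubated 24 to 72 h, maximal signal taken from wells lacking competitor, background from wells lacking HLA molecule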
row,Binder,relative affinity
1,GEWTPTLQHYLSYTE-NH2 [CCNB1 359-373],500
2,KHMTVKNKYATSKHA-NH2 [CCNB1 396-410],408
3,EDLCQAFSDVILAVN-NH2 [CCNB1 140-154],1110
4,PKYLLGREVTGNMRA-NH2 [CCNB1 189-203],34
5,QGLTKHMTVKNKYAT-NH2 [CCNB1 392-406],577

# Target: T6, HLA-DR11 (HLA-DRB1*11:01) (human)
# T6 construct: mature; purified from homozygous EBV-transformed lymphoblastoid cells with antibody L243
# Experiment: competition ELISA vs biotin-HA 306-318;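 note: HLA and competitor incubated 24 to 72 h, maximal signal taken from wells lacking competitor, background from wells lacking HLA molecule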
row,Binder,relative affinity
1,EQLQAKMPMKKEAKP-NH2 [CCNB1 54-68],1410
2,GEWTPTLQHYLSYTE-NH2 [CCNB1 359-373],22
3,KHMTVKNKYATSKHA-NH2 [CCNB1 396-410],7
4,SKIGEVDVEQHTLAK-NH2 [CCNB1 310-324],190
5,KDIYAYLRQLEEEQA-NH2 [CCNB1 172-186],1
6,PKYLLGREVTGNMRA-NH2 [CCNB1 189-203],3
7,SKINAENKAKINMAG-NH2 [CCNB1 9-23],490
8,QGLTKHMTVKNKYAT-NH2 [CCNB1 392-406],693

# Target: T7, HLA-DP402 (HLA-DPB1*04:02) (human, UniProt P20036 29-222)
# T7 construct: mature; purified from homozygous EBV-transformed lymphoblastoid cells with antibody B7/21
# Experiment: competition ELISA vs biotin-Oxy 271-287;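 note: plates incubated 24–72 h, maximum binding defined by wells lacking competitor, background by wells lacking HLA molecule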
row,Binder,relative affinity
1,SQIAAGAFCLALKIL-NH2 [CCNB1 342-356],25
2,KKMLQLVGVTAMFIA-NH2 [CCNB1 241-255],35
3,QHYLSYTEESLLPVM-NH2 [CCNB1 366-380],0.3

# Target: T8, HLA-DP401 (HLA-DPB1*04:01) (human, UniProt P20036 29-222)
# T8 construct: mature; purified from homozygous EBV-transformed lymphoblastoid cells with antibody B7/21
# Experiment: competition ELISA vs biotin-Oxy 271-287;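 note: plates incubated 24–72 h, maximum binding defined by wells lacking competitor, background by wells lacking HLA molecule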
row,Binder,relative affinity
1,SQIAAGAFCLALKIL-NH2 [CCNB1 342-356],79
2,KKMLQLVGVTAMFIA-NH2 [CCNB1 241-255],424
3,QHYLSYTEESLLPVM-NH2 [CCNB1 366-380],0.2

# Target: T9, HLA-DRB3 (HLA-DRB3*01:01) (human)
# T9 construct: mature; purified from homozygous EBV-transformed lymphoblastoid cells with antibody L243
# Experiment: competition ELISA vs biotin-LOL 191-210
row,Binder,relative affinity
1,SQIAAGAFCLALKIL-NH2 [CCNB1 342-356],239
2,QHYLSYTEESLLPVM-NH2 [CCNB1 366-380],32

# Target: T10, HLA-DRB4 (HLA-DRB4*01:01) (human)
# T10 construct: mature; purified from homozygous EBV-transformed lymphoblastoid cells with antibody L243
# Experiment: competition ELISA vs biotin-E2/E168
row,Binder,relative affinity
1,SQIAAGAFCLALKIL-NH2 [CCNB1 342-356],57

# Target: T1, HLA-DR7 (HLA-DRB1*07:01)
# Experiment: competition ELISA vs biotin-YKL
# Remark: another data set of the same source
row,Binder,relative affinity
1,EQLQAKMPMKKEAKP-NH2 [CCNB1 54-68],808
2,GEWTPTLQHYLSYTE-NH2 [CCNB1 359-373],0.4
3,KHMTVKNKYATSKHA-NH2 [CCNB1 396-410],533
4,KDIYAYLRQLEEEQA-NH2 [CCNB1 172-186],1600
5,QGLTKHMTVKNKYAT-NH2 [CCNB1 392-406],533

# Target: T11, HLA-DR13 (HLA-DRB1*13:01) (human)
# T11 construct: mature; purified from homozygous EBV-transformed lymphoblastoid cells with antibody L243
# Experiment: competition ELISA vs biotin-B1 21-36
row,Binder,relative affinity
1,KHMTVKNKYATSKHA-NH2 [CCNB1 396-410],9
2,SKIGEVDVEQHTLAK-NH2 [CCNB1 310-324],1800
3,KDIYAYLRQLEEEQA-NH2 [CCNB1 172-186],5
4,SKINAENKAKINMAG-NH2 [CCNB1 9-23],146
5,QGLTKHMTVKNKYAT-NH2 [CCNB1 392-406],7

# Target: T2, HLA-DR3 (HLA-DRB1*03:01)
# Experiment: competition ELISA vs biotin-MT 2-16
# Remark: another data set of the same source
row,Binder,relative affinity
1,KKMLQLVGVTAMFIA-NH2 [CCNB1 241-255],15

# Target: T3, HLA-DR1 (HLA-DRB1*01:01)
# Experiment: competition ELISA vs biotin-HA 306-318
# Remark: another data set of the same source
row,Binder,relative affinity
1,SQIAAGAFCLALKIL-NH2 [CCNB1 342-356],46
2,KKMLQLVGVTAMFIA-NH2 [CCNB1 241-255],3
3,QHYLSYTEESLLPVM-NH2 [CCNB1 366-380],32

# Target: T4, HLA-DRB5 (HLA-DRB5*01:01)
# Experiment: competition ELISA vs biotin-HA 306-318
# Remark: another data set of the same source
row,Binder,relative affinity
1,KKMLQLVGVTAMFIA-NH2 [CCNB1 241-255],1
2,QHYLSYTEESLLPVM-NH2 [CCNB1 366-380],471

# Target: T5, HLA-DR4 (HLA-DRB1*04:01)
# Experiment: competition ELISA vs biotin-HA 306-318
# Remark: another data set of the same source
row,Binder,relative affinity
1,KKMLQLVGVTAMFIA-NH2 [CCNB1 241-255],1
2,QHYLSYTEESLLPVM-NH2 [CCNB1 366-380],65

# Target: T6, HLA-DR11 (HLA-DRB1*11:01)
# Experiment: competition ELISA vs biotin-HA 306-318
# Remark: another data set of the same source
row,Binder,relative affinity
1,SQIAAGAFCLALKIL-NH2 [CCNB1 342-356],3
2,KKMLQLVGVTAMFIA-NH2 [CCNB1 241-255],90
3,QHYLSYTEESLLPVM-NH2 [CCNB1 366-380],55

# Target: T12, HLA-DR15 (HLA-DRB1*15:01) (human)
# T12 construct: mature; purified from homozygous EBV-transformed lymphoblastoid cells with antibody L243
# Experiment: competition ELISA vs biotin-A3 152-166
row,Binder,relative affinity
1,GEWTPTLQHYLSYTE-NH2 [CCNB1 359-373],0.2
2,KHMTVKNKYATSKHA-NH2 [CCNB1 396-410],229
3,EDLCQAFSDVILAVN-NH2 [CCNB1 140-154],207
4,KDIYAYLRQLEEEQA-NH2 [CCNB1 172-186],11

# Target: T12, HLA-DR15 (HLA-DRB1*15:01)
# Experiment: competition ELISA vs biotin-A3 152-166
# Remark: another data set of the same source
row,Binder,relative affinity
1,SQIAAGAFCLALKIL-NH2 [CCNB1 342-356],21
2,KKMLQLVGVTAMFIA-NH2 [CCNB1 241-255],1
3,QHYLSYTEESLLPVM-NH2 [CCNB1 366-380],47
